Experimental data: patent publication US20220380728A1 (EAST CAROLINA UNIVERSITY, published 2022)

T1: murine CD25 (IL-2 receptor alpha chain) on mouse T cells (mouse, UniProt P01590 22-268)
T1 construct: whole, on cells; Endogenous CD25 on cultured mouse Tregs and Tcons; also called IL-2Rα; surface CD25
T1 sequence (looked up): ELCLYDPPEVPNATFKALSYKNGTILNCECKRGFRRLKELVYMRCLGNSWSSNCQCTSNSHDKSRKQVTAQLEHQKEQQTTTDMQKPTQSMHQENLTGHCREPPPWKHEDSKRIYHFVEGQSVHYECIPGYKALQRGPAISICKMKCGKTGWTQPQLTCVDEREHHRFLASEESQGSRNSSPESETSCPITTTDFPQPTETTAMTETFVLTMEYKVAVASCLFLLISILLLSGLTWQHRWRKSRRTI


Key:
[1] = biological target: TGF-β produced by cells in the culture (mouse) (UniProt Q61315); experiment: cell-based or functional assay
[2] = biological target: T1, murine CD25 (IL-2 receptor alpha chain) …; experiment: flow cytometry on 2D2-FIG Tregs; loss of APC-conjugated PC61 staining

TGF-β produced by cells in the culture (mouse), sequence (Q61315 whole entry): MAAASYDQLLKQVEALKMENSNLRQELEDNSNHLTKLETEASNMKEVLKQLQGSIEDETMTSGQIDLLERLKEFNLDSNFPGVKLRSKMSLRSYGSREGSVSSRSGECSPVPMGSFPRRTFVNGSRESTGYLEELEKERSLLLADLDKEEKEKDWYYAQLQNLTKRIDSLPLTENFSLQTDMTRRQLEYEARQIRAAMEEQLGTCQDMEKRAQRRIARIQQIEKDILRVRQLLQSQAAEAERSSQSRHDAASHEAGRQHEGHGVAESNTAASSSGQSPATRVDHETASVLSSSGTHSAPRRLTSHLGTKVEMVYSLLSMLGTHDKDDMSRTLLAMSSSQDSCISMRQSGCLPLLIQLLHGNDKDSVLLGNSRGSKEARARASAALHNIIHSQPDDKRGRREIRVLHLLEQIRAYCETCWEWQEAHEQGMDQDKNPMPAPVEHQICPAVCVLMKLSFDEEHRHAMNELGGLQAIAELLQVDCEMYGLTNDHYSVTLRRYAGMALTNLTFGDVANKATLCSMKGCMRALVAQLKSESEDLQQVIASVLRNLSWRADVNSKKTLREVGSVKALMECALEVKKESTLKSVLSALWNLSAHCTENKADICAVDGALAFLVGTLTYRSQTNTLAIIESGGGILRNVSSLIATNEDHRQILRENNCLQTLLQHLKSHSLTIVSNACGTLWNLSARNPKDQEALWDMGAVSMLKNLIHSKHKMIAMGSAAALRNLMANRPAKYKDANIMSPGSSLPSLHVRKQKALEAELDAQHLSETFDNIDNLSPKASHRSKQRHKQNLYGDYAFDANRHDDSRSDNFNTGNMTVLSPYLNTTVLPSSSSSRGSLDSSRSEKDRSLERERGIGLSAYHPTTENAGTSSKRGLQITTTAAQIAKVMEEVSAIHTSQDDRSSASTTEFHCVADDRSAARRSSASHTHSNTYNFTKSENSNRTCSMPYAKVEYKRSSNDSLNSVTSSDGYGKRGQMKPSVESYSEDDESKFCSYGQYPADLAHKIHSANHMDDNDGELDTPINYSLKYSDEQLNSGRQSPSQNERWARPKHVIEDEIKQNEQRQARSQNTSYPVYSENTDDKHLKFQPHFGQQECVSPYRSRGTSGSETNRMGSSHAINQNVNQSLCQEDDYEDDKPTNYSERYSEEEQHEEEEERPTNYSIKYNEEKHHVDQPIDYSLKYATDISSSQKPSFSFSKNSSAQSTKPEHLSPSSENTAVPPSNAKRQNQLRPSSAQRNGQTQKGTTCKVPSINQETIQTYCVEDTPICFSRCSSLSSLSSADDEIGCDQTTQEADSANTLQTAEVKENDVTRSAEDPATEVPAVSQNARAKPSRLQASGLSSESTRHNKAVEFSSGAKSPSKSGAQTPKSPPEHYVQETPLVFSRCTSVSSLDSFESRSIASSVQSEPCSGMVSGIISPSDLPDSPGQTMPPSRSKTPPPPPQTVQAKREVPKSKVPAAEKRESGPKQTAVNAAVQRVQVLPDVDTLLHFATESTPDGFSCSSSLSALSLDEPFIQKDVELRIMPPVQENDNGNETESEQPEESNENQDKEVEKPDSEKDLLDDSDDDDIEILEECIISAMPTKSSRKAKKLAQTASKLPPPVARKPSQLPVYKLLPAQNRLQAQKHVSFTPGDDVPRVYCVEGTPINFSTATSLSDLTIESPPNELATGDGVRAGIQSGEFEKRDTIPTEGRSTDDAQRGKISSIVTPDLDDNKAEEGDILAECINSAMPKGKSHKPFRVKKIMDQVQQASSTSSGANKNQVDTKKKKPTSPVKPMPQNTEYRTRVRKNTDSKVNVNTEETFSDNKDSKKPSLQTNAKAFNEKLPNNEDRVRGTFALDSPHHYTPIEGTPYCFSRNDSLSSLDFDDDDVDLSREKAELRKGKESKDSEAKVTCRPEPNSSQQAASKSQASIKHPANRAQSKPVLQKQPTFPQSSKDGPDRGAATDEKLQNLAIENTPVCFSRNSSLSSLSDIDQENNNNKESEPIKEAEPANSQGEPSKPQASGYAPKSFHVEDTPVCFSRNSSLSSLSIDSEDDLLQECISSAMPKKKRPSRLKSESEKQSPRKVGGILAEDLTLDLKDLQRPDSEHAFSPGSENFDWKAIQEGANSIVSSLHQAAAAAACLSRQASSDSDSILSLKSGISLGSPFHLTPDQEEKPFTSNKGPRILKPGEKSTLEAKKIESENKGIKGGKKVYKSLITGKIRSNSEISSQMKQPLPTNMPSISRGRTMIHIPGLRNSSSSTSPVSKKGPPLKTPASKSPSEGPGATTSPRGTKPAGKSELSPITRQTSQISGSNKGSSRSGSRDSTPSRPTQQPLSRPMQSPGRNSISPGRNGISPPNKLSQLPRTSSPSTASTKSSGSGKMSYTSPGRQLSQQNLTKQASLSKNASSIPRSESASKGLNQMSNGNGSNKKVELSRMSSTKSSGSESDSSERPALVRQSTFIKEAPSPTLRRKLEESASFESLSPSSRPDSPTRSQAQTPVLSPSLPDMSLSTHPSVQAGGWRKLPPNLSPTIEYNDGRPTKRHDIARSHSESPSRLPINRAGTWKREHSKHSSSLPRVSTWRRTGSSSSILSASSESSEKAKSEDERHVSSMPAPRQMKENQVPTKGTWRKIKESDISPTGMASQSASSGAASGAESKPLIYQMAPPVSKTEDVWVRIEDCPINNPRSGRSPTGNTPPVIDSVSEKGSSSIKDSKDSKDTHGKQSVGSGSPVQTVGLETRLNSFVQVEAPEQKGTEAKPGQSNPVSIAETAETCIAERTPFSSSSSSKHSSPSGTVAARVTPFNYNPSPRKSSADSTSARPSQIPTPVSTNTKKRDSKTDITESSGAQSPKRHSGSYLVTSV

FOXP3+ Treg percentages during secondary activation (1D11 at 50 µg/ml) [1] [%]	binding result [2]	Molecule
< 50		1D11.16.8 anti-mouse-TGF-β1/2/3 monoclonal antibody (mouse IgG1)
	binds	PC61 anti-CD25 monoclonal antibody (PC61-5.3 hybridoma, rat IgG1, lambda) (antibody, V domains shown, also called PC61 mAb; anti-CD25 PC61 mAb) VH: QVQLQQSGAELVRPGTSVKLSCKVSGDTITAYYIHFVKQRPGQGLEWIGRIDPEDDSTEYAEKFKNKATITANTSSNTAHLKYSRLTSEDTATYFCTTDNMGATEFVYWGQGTLVTVSS VL: QVVLTQPKSVSASLESTVKLSCKLNSGNIGSYYMHWYQQREGRSPTNLIYRDDKRPDGAPDRFSGSIDISSNSAFLTINNVQTEDEAMYFCHSYDGRMYIFGGGTKLTVLG
